PMC5458760, “The LOTUS domain is a conserved DEAD-box RNA helicase regulator essential for the recruitment of Vasa to the germ plasm and nuage” (Genes & Development, 2017)
One block for each binder: values may come before it.

Assays:
Vasa 463–661 = target: T1, Vasa 463–661 (Drosophila, UniProt P09052 463-661); test: ITC; Vasa 463–661 titrated to the Oskar LOTUS domain (144–240); 25°C; VP-ITC; 20 mM Tris pH 7.5, 150 mM sodium chloride; curve fitted with the LOTUS monomer concentration; details: both partners purified
T1 construct: Vasa, Drosophila, C-terminal RecA-like domain with the C-terminal extension, residues 463-661; Details are in the Supplemental Material; also called Vasa-CTD; source: E. coli (Rosetta 2), purified
T1 sequence (looked up): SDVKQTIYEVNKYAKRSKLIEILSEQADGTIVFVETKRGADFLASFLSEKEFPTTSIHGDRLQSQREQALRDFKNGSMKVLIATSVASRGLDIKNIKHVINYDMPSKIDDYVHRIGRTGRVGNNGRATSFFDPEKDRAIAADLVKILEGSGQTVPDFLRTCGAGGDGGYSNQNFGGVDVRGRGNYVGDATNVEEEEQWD

His-Vasa 200–661 = target: T2, His-Vasa 200–661 (Drosophila, UniProt P09052 200-661); test: pull-down; GST pull-down with purified recombinant proteins; GST or GST fusion as bait (8.75-10 µM in the legends), Vasa as prey (17.5-20 µM in the legends); samples on an SDS gel stained with Coomassie brilliant blue; details: both partners purified
T2 construct: Vasa, Drosophila DEAD-box RNA helicase, helicase core with the C-terminal extension, residues 200-661; Construct details are in the Supplemental Material; also called His-tagged Vasa 200–661; wild-type Vasa helicase core; source: E. coli (Rosetta 2), purified
T2 sequence (looked up): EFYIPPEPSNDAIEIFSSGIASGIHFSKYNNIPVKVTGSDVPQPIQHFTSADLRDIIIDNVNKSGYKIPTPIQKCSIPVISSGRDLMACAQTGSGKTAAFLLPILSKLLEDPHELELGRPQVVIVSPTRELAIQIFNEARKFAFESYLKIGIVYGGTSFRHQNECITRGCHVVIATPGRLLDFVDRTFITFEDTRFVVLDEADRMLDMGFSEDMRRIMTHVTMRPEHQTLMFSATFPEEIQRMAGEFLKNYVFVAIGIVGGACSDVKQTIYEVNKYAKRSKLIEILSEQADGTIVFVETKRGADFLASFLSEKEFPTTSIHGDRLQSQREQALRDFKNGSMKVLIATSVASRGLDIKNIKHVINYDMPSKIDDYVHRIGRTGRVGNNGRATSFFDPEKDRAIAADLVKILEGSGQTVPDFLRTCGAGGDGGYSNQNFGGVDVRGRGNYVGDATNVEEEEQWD

Vasa 200–661 = target: T3, Vasa 200–661 (Drosophila, UniProt P09052 200-661); test: as above; details: both partners purified
T3 construct: Vasa, Drosophila DEAD-box RNA helicase, helicase core with the C-terminal extension, residues 200-661; It may be the same preparation as His-Vasa 200–661; Construct details are in the Supplemental Material; also called Vasa helicase core; source: E. coli (Rosetta 2), purified
T3 sequence (looked up): T2 sequence (looked up)

Vasa 463–623 = target: T4, Vasa 463–623 (Drosophila, UniProt P09052 463-623); test: crystal structure; Oskar 139–240 and Vasa 463–623 mixed in a 2:1 molar ratio; hanging drop vapor diffusion at 18°C; 1.4 Å; molecular replacement; details: both partners purified
T4 construct: Vasa, Drosophila, C-terminal RecA-like domain without the C-terminal extension, residues 463-623; also called Vasa-CTD lacking the C-terminal extension; Vasa C-terminal RecA-like domain; source: E. coli (Rosetta 2), purified
T4 sequence (looked up): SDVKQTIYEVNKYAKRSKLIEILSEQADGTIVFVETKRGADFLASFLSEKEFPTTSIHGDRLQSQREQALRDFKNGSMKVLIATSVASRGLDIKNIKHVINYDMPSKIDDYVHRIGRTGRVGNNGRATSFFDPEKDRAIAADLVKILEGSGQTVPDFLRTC

[1] = target: the molecule itself; test: as above

- Kd (Vasa 463–661): ~10 µM
B1: Oskar LOTUS domain (amino acids 144–240) (domain or fragment, Drosophila, UniProt P25158 144-240, looked up)
chain: SNYISVREEYPDIDSEVRAILLSHAQNGITISSIKSEYRKLTGNPFPLHDNVTDFLLTIPNVTAECSESGKRIFNLKASLKNGHLLDMVLNQKERTS
notes: Oskar, Drosophila, LOTUS domain, residues 144-240; residue numbers are those of the long isoform; The legend notes that the LOTUS domain of Oskar forms dimers (Jeske et al. 2015); The ITC curve was fitted with the monomer concentration; Details are in the Supplemental Material; also called Osk 144–240; Oskar 144–240 (LOTUS); source: E. coli (Rosetta 2), purified

- binding result (His-Vasa 200–661): binds
- binding result (Vasa 200–661): binds
B2: GST-Oskar LOTUS (amino acids 139–240) (domain or fragment, Drosophila, UniProt P25158 139-240, looked up)
chain: MTIIESNYISVREEYPDIDSEVRAILLSHAQNGITISSIKSEYRKLTGNPFPLHDNVTDFLLTIPNVTAECSESGKRIFNLKASLKNGHLLDMVLNQKERTS
notes: Oskar, Drosophila, LOTUS (eLOTUS) domain with its C-terminal extension, residues 139-240; residue numbers are those of the long isoform; Construct details are in the Supplemental Material; also called Oskar GST-LOTUS; GST fusion of the LOTUS domain of Oskar; source: E. coli (Rosetta 2), purified

- binding result (Vasa 463–623): binds
B3: Oskar 139–240 (LOTUS domain) (domain or fragment, Drosophila, UniProt P25158 139-240, looked up)
chain: B2 chain
notes: Oskar, Drosophila, LOTUS (eLOTUS) domain with its C-terminal extension, residues 139-240; residue numbers are those of the long isoform; This is a dimer in the crystal; No tag is stated for the crystallised protein; also called LOTUS domain of Oskar (amino acids 139–240); eLOTUS; source: E. coli (Rosetta 2), purified
- stoichiometry N [1]: 2
